The target in the assay is BAFF-R Liama IgG2b Fc Tag recombinant protein (Acro, Cat. No.: BAR-H5258) (UniProt Q96RJ3). Nature of the assay: flow cytometry; control T cells expressing only EGFRt incubated with BAFF-R llama IgG2b Fc protein at 10 ug/mL, detected with FITC-anti llama IgG.

The source of these data is patent US20250268939A1.

Chain of UniProt Q96RJ3 (Q96RJ3 7-71): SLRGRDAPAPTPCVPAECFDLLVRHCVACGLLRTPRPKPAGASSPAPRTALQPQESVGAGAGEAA

“EGFRt (from UniProt P00533 334-668) (receptor)”: the positive rate was found to be 0.65%.
